According to the RNAGym collection of RNA variant scans (doi:10.1073/pnas.2313332121):
This sample holds only a part of the variants without activity.

B1: TPR 5TU (parent)
chain: GGAUCUUCUCGAUCUAACAAAAAAGACAAAUCUGCCACAAAGCUUGAGAGCAUCUUCGGAUGCAGAGGCGGCAGCCUUCGGUGGCGCGAUAGCGCCAACGUUCUCAACUAUGACACGCAAAACGCGUGCUCCGUUGAAUGGAGUUUAUCAUG

Variants of: B1
Test: polymerase ribozyme fitness, log enrichment relative to wild type (log ratio); higher = more active; in vitro selection for triplet polymerase activity
Method in brief: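 Fitness compares each genotype's enrichment to that of the wild type on a logarithmic scale, averaging replicates with inverse-variance weights. The logarithm is base 2. Enrichment came from Illumina sequencing of input and output libraries after one triplicate round of in vitro selection, which included frozen incubation at −7 °C, of PCR-built, transcribed mutant libraries of each subunit of a heterodimeric triplet polymerase ribozyme. Only genotypes with ≥10 input reads and ≥1 read per output were kept.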

Row | Variant | polymerase ribozyme fitness (log ratio)
1 | A16C A24C G50C C85U G143U | ≤ -4.2
2 | A16C C54G U77G C85U U135C | ≤ -4.2
3 | A16U A20U G58C G86A | -3.79
4 | U15G A24U G25C C38G C54G C76G G81C C93A C132U | ≤ -4.2
5 | U15A C27G A30U G68A A89U C95G A98U | ≤ -4.2
6 | A16C C32G U56G C63G | ≤ -4.2
7 | A16U A20C G83C C96A A107G | ≤ -4.2
8 | A16C G83U | -1.56
9 | A16G C76U C79A G83U G152U | ≤ -4.2
10 | A16U A26C C54A A119C G133C U135A | ≤ -4.2
11 | A16G A23U A29G A47C G50A C87G A106U U135C A147U | ≤ -4.2
12 | A16G A19U C93A | -3.75
13 | A16G G34U A52U A60G G88U A91U G140C | -4.14
14 | C14U G50A G58C A121C | -3.27
15 | C14G U15G C54U G58U C87G C105U G143A | ≤ -4.2
16 | C14U G84A | -1.56
17 | C14U U55A C85G C93U C96A U102A A115G | ≤ -4.2
18 | U15C U53A A73G C76U G92C | -1.85
19 | A16G G86U C132U U135G | ≤ -4.2
20 | C14U C87U C99U G124A C125U | -2.54
21 | A16U A64U A66C C93G | ≤ -4.2
22 | A16G A19G A23U A26C U44A U53A C87G C103A | -4.11
23 | U15G C32A G88A A97G | ≤ -4.2
24 | C14G U61G | -3.62

Row | Variant | polymerase ribozyme fitness (log ratio)
25 | C14G U61A | -3.55
26 | C14U | -1.06
27 | U15G A21C A26U C38G G92A A113C | ≤ -4.2
28 | U15C C35U U56A A89C | 0.662
29 | U15G A17U | -0.367
30 | U15C A23G U82A C93G G126A | -4.14
31 | A16U A22C G59A C118A | -3.09
32 | A16U C32G G34A C85G U90G A97G U134G G141C | ≤ -4.2
33 | C14U A24U U55A G70C G94A C116G | ≤ -4.2
34 | C14G U15A C54U C69A C99A U148A | ≤ -4.2
35 | C14G G46U G48A A73U U77C | ≤ -4.2
36 | C14G G25C | ≤ -4.2
37 | A16G A28C C36A U44A G48C A49C C76G U77C A91U C103G | ≤ -4.2
38 | U15A G83U | -0.19
39 | A16U A19U C32G A60U A91U C99U A138C | ≤ -4.2
40 | A16C C38U G80U C96G A142C U148G | ≤ -4.2
41 | A16U C18A A21C A73U G92U | -2.75
42 | A16G G86U | -2.72
43 | U15C G74C G94C | -4.1
44 | C14U A41U U56A C93A C123A | ≤ -4.2
45 | C14U G46A A47C C57A G65C G86U C96U | ≤ -4.2
46 | C14U A23U U31A A47C G92C C96G C131A | ≤ -4.2
47 | C14G U55A C96U | -3.27
48 | A16G A26C C32U A47C U53A A91G C96G | ≤ -4.2

Row | Variant | polymerase ribozyme fitness (log ratio)
49 | C14G C35G U82G G92A C96A G100A C116G A120G G141A U144A | ≤ -4.2
50 | C14G U31A A40U U90G G92A A107G G112A G133U G141A | ≤ -4.2
51 | C14G C35U G42C A52U C75A C79G G92C C118U G140C | -4.09
52 | U15G C57G C93A C99G | -4.06
53 | U15A A29C C35A G59A C76U G143C | ≤ -4.2
54 | A16U C93U | -2.81
55 | A16G C43U C51U G80C G117A A142C | ≤ -4.2
56 | A16G A110G | -3.77
57 | C14G G88U U102A | ≤ -4.2
58 | C14G G50C C51U C79U C85A C125A | ≤ -4.2
59 | A16C A19U | -1.03
60 | C14U C116G G128A C129G U135G | ≤ -4.2
61 | C14U G74C A107G | ≤ -4.2
62 | A16G A98U | -1.65
63 | C14U A21G C38G C57A C79U A138C U148C | ≤ -4.2
64 | U15A A47C C54G A115G U127C U146A | -1.14
65 | C14U U53A U56A | -2.46
66 | U15G A22G U56G C96U A121U | -0.722
67 | C14U A91G | -3.98
68 | A16G A26U C35A C51G U61A C87G A120U C129G | ≤ -4.2
69 | A16G A17C A21U A29G U55A C57G A91C C103U U145A | ≤ -4.2
70 | A16C A21U A39C U44A U45A A49G G84A G126U | ≤ -4.2
71 | A16U A41U G59A C116G C129U A150G | ≤ -4.2
72 | A16C C79A A91U C116A C149A | ≤ -4.2

Row | Variant | polymerase ribozyme fitness (log ratio)
73 | U15C A21U | 1.65
74 | C14U A23U U56C C87U U90G | ≤ -4.2
75 | U15G G152U | -2.98
76 | A16U A19C C57U G71C U134G G141U | ≤ -4.2
77 | A16C A66U A122C U139A A142U | ≤ -4.2
78 | U15A G59A A60U C79U C87A | ≤ -4.2
79 | C14U C35U G84U C131U | -3.79
80 | A16G A22U C85G G92A C93G C108G A113U G117C | ≤ -4.2
81 | U15G U53A A91G | -2.83
82 | C14U A22U A41U A120C | -3.1
83 | A16U A24U U33A C35U C87G | -4.15
84 | A16G C18U U31G C35A C43A C95G C103U | ≤ -4.2
85 | A16G A91U C105G A115G | ≤ -4.2
86 | U15G U55A | -0.257
87 | A16U G46C G50C G67A G74C C118U U130A | -4.05
88 | C14U A39C G71C C85U A97G | ≤ -4.2
89 | A16C U33A C54A C85A A91G C125G G133U | ≤ -4.2
90 | A16C G50A C85U | -3.26
91 | A16U A37C C63U C95U A119U A122U | -3.13
92 | U15C C54A C87U G94A A98U C125A | -3.98
93 | C14U G74A C99A | ≤ -4.2
94 | C14G U139G U144G | -1.38
95 | U15G A40C G42A A49G G62C C93A | ≤ -4.2
96 | U15G A17G C27G A39G | ≤ -4.2

Row | Variant | polymerase ribozyme fitness (log ratio)
97 | U15G A21C G83U A89G C96G U127A | -4.13
98 | A16C C18G U45G U61G | ≤ -4.2
99 | C14G G25A U55A U127C | ≤ -4.2
100 | C14U A60U C96G | ≤ -4.2
101 | C14G U55A G92U | -2.92
102 | U15G G74A C96U C125A G141U | ≤ -4.2
103 | C14U G94A G136U | -3.85
104 | U15G A47C | -0.922
105 | C14U G92C G136A | -2.51
106 | A16G G83A | -0.814
107 | A16G G34U A52U A60G C72G G88U A91U G140C | ≤ -4.2
108 | A16G G34C C35A C54A C93A | ≤ -4.2
109 | U15C C87U A142U | -0.702
110 | C14U U31C C76U G84U A142G G143U U146G | ≤ -4.2
111 | A16C A41C C57G G59C U135A | -3.85
112 | A16G G80A | -0.775
113 | C14U U55A | -1.33
114 | C14U C35G C75U C76G C95U | -3.81
115 | C14G U15A G68C G83A U111C | ≤ -4.2
116 | A16U A17U U44A C54U A66G A89G G140C | ≤ -4.2
117 | U15A C43U U53G C76A U102G A119G G128U U135G A142U | ≤ -4.2
118 | U15C U56A C79A G80U C96U C103A A107C U146A | ≤ -4.2
119 | C14U G88A | -4.2
120 | U15C U145G | 0.506

Row | Variant | polymerase ribozyme fitness (log ratio)
121 | U15C G84A A106G G124A | -0.149
122 | U15G A49G C87U G136A | -1.17
123 | C14U A21C G67U U77A C85G C96U U127G | ≤ -4.2
124 | U15G G59U U135G | -3.96
125 | A16C C51U C87G C118G G133U | ≤ -4.2
126 | U15C C93U | -0.331
127 | U15A U31A G83U C103G U139A | ≤ -4.2
128 | U15A C38U C54U C95G G141A | -1.16
129 | C14G G141A | -1.87
130 | U15G C38U C87U U104A | -1.04
131 | A16U C54U | -1.53
132 | C14U G25C A26C G42A A60U G84A C108U G152A | ≤ -4.2
133 | A16U A22U C38U C85U | -2.73
134 | U15C A20U C54U G86U | -1.77
135 | C14G U55A G84A G141A | -3.7
136 | A16U C27G A89G G92U C149G | ≤ -4.2
137 | A16U A20C A41U C87G A98G | ≤ -4.2
138 | A16C C27A A30U C38G G48U G86U A110U C116G G141A | -4.02
139 | C14U G50C A89U C93G G143U | ≤ -4.2
140 | C14U A41U A60C A66U G80A C85U C103U | ≤ -4.2
141 | C14U A107U G117A C118A A142G | ≤ -4.2
142 | U15A A21G A49G C96G | -1.26
143 | C14G U56A | -2.57
144 | U15C A28G U146C | ≤ -4.2

Row | Variant | polymerase ribozyme fitness (log ratio)
145 | C14U G59U | -1.23
146 | U15C A41G U61G C99U | -2.24
147 | A16C C87U | -1.85
148 | A16C G86C A110G | ≤ -4.2
149 | C14U A41C G50U A52C G84A U90G A91C C116U G140A | ≤ -4.2
150 | C14G G94A | -2.61
151 | C14G G94C | -2.23
152 | A16C A89U A91U U127C | ≤ -4.2
153 | C14U A21U G50C U56A A66C A91U G143C | ≤ -4.2
154 | A16C C99G C125A | -2.16
155 | C14G C93U | -3.66
156 | C14U C72U C76U C96A G112U | ≤ -4.2
157 | A16U A22C A30U U55A C57A C76G G81U G84C | ≤ -4.2
158 | A16U C38A C85A | -3.78
159 | U15C A22C C51U G81U C85U G94A A122G | -1.17
160 | A16G G128U | -3.4
161 | U15G A41U A73G | -1.57
162 | C14U A19G G94A A106G C131G | ≤ -4.2
163 | A16G C36G | -4.12
164 | U15C A91U | ≤ -4.2
165 | C14U G48U A52U A138C A142C U148G | ≤ -4.2
166 | C14U A20C A39G A52G U56A C96A A121U | -4
167 | A16G A52C U53A G92C U109G A137C U139G | ≤ -4.2
